Laboratory results as given in patent US20260015426A1 (23ANDME, published 2026).
Like-named read-outs stand apart in the source and are kept apart here.

Legend:
[1] = target: T1, hu-S-IL1RAP construct, positions S21-Q356 (soluble human IL1RAP) (human, UniProt Q9NPH3 21-350); test: ELISA, purified mAb
T1 sequence: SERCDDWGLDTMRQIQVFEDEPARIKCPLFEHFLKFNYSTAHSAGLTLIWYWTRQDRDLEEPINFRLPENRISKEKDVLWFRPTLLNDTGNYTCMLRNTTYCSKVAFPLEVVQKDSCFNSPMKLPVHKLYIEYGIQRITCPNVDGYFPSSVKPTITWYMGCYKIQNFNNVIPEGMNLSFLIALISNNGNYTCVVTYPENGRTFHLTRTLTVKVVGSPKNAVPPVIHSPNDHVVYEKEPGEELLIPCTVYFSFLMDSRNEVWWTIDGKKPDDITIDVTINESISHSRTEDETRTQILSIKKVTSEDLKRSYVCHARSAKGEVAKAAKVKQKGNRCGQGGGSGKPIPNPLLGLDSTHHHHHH

[2] = target: T2, mu-M-IL1RAP construct, positions S21-T367 (mouse, UniProt Q61730 21-367); test: ELISA, purified mAb
T2 construct: also called mo-M-IL1RAP; mouse-M-IL1RAP
T2 sequence: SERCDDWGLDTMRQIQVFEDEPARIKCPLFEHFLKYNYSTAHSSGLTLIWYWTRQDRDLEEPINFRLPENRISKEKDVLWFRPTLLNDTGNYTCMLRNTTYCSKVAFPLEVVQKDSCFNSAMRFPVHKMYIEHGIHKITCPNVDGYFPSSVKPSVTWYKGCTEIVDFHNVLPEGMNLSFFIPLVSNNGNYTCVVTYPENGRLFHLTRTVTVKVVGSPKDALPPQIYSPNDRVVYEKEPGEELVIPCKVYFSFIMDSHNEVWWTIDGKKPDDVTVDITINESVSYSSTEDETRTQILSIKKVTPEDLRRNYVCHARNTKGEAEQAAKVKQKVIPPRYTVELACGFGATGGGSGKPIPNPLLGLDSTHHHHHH

[3] = target: T3, hu-M-IL1RAP construct, positions S21-T367 (extracellular domain of the membrane form of human IL1RAP) (human, UniProt Q9NPH3 21-367); test: ELISA, purified mAb
T3 construct: Biotinylated when captured on the Biacore chip
T3 sequence: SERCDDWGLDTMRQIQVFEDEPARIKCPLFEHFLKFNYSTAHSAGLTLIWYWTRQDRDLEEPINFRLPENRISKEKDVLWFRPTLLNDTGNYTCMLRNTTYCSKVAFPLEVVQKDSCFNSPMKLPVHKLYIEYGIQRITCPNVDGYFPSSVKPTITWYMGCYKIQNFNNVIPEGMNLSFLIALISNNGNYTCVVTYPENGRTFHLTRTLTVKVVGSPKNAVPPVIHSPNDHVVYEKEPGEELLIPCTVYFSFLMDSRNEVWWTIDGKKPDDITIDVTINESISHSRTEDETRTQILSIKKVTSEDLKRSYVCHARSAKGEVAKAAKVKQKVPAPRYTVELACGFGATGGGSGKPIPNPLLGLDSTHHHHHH

[4] = target: T4, cyno-M-IL1RAP construct, positions S21-T367 (cynomolgus monkey, UniProt P59822 21-367 (rhesus entry)); test: ELISA, purified mAb
T4 construct: Biotinylated when captured on the Biacore chip; also called cy-M-IL1RAP
T4 sequence: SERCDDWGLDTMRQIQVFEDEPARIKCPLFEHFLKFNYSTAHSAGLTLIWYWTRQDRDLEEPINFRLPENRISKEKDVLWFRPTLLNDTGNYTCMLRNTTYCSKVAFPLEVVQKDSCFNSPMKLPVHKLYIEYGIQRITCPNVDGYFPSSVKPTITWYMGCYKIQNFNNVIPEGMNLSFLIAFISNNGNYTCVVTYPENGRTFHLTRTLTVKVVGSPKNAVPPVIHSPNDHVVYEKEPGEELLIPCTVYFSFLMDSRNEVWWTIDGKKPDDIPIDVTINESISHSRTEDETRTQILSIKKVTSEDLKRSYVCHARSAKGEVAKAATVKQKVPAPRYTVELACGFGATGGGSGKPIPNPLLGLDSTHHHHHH

[5] = target: T5, human IL1RAP (hu-IL1RAP) on human cells (human, UniProt Q9NPH3 21-570); test: cell-based or functional assay
T5 sequence: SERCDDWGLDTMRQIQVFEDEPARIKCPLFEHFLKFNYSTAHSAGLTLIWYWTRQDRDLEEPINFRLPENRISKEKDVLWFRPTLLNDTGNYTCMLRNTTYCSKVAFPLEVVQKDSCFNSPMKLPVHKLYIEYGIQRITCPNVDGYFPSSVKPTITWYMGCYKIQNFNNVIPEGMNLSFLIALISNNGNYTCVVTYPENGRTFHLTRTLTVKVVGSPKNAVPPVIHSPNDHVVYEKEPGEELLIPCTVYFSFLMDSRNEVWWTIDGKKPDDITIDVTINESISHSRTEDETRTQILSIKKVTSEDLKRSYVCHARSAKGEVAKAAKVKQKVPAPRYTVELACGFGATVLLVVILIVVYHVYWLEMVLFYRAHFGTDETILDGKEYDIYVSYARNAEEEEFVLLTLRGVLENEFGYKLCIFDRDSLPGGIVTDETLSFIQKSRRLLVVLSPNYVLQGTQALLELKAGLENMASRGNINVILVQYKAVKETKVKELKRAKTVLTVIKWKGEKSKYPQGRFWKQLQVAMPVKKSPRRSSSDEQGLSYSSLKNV

[6] = target: T3, hu-M-IL1RAP construct, positions …; test: ELISA, mAb at 10 nM
[7] = target: T6, hu-M-IL1RAP-D1D2 construct, positions S21-P237 (human); test: ELISA, mAb at 10 nM
T6 chain: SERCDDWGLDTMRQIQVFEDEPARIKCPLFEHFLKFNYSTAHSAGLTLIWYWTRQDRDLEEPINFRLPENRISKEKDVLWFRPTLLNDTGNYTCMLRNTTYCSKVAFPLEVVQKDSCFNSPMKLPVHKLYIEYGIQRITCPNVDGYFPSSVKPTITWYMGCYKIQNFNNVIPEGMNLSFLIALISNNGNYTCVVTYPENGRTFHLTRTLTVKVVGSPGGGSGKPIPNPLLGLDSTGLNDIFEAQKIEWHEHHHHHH

[8] = target: T5, human IL1RAP (hu-IL1RAP) on human cells; test: cell-based or functional assay; remark: listed apart in the source
[9] = target: T3, hu-M-IL1RAP construct, positions …; test: ELISA, hybridoma supernatant
[10] = target: T5, human IL1RAP (hu-IL1RAP) on human cells; test: cell-based or functional assay; remark: listed apart in the source
[11] = target: T3, hu-M-IL1RAP construct, positions …; test: SPR, IgG analyte (apparent), 37 C, pH 7.4
[12] = target: T4, cyno-M-IL1RAP construct, positions …; test: SPR, IgG analyte (apparent), 37 C, pH 7.4
[13] = target: T3, hu-M-IL1RAP construct, positions …; test: SPR, IgG analyte (apparent), 37 C, pH 6
[14] = target: T4, cyno-M-IL1RAP construct, positions …; test: SPR, IgG analyte (apparent), 37 C, pH 6
[15] = target: T7, biotinylated human FcRn (Acro biosystems, catalogue number FCN-H52W7) (human, UniProt P55899 24-297; P61769 21-119, biotinylated); test: SPR steady state, FcRn captured, 25 C, pH 6.0; pH 6.0
T7 construct: Bought reagent; also called hu-FcRn
T7 sequence (P55899 24-297 limits assumed, chain 1 of 2): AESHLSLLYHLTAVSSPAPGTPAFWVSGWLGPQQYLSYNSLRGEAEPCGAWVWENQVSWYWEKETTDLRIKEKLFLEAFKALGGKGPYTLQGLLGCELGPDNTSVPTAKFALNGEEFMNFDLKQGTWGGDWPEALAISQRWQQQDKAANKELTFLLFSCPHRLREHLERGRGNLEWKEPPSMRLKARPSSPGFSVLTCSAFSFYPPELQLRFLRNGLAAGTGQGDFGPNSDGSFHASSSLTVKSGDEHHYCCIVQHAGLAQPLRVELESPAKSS
T7 sequence (P61769 21-119 limits assumed, chain 2 of 2): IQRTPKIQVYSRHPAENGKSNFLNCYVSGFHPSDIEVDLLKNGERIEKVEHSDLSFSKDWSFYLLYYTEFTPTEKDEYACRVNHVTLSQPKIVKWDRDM

[16] = target: T8, biotinylated cyno FcRn (Acro biosystems, catalogue number FCM-C5284) (cynomolgus monkey, UniProt Q8SPV9 24-297; Q8SPW0 21-119, limits assumed, biotinylated); test: as above
T8 construct: Bought reagent

[17] = target: T3, hu-M-IL1RAP construct, positions …; test: SPR, 37 C
[18] = target: T4, cyno-M-IL1RAP construct, positions …; test: SPR, 37 C
[19] = target: T3, hu-M-IL1RAP construct, positions …; test: SPR, IgG analyte (apparent), pH 7.4, 37 C
[20] = target: T4, cyno-M-IL1RAP construct, positions …; test: SPR, IgG analyte (apparent), pH 7.4, 37 C
[21] = target: T5, human IL1RAP (hu-IL1RAP) on human cells; test: cell-based or functional assay; remark: listed apart in the source

B1: 9D5 (purified mAb from hybridoma 9D5) (antibody, V domains shown)
VH: QVQLQQSGAELARPGASVKFSCKASGYTFTSYWMQWVKQRPGQGLEWIGTIYPGDGNTRYTQKFKGKATLTADKSSSTAYMQLSGLASEDSAVYYCARGYFGNLVFDVWGAGTTVTVSS
VL: DIKMTQSPSSMYASLGERVTITCKASQDINTYLSWFLQKPGKSPKTLIYRADRLVDGVPSRFSGGGSGQDYSLTISSLEYEDLGIYYCLQYDEFPYTFGSGTKLEIK
notes: Mouse hybridoma mAb
[1]
  EC50: 0.036 nM
[2]
  binding result: no binding (tested: 20 nM (highest tested))
[3]
  EC50: 0.039 nM
[4]
  EC50: 0.043 nM
[5]
  HEK-Blue SEAP, IL-1β, % inhibition (supernatant): 40%
  HEK-Blue SEAP, IL-33, % inhibition (supernatant): 18%
[6]
  A450: 1.14 A450
[7]
  A450: 0.957 A450
[8]
  HEK-Blue, IL-1β, % inhibition at 100 nM: 86%
  HEK-Blue, IL-33, % inhibition at 100 nM: 46%
[9]
  A450: 1.05 A450

B2: h11C5 variant K17/H2 IgG (YKD) (antibody)
heavy: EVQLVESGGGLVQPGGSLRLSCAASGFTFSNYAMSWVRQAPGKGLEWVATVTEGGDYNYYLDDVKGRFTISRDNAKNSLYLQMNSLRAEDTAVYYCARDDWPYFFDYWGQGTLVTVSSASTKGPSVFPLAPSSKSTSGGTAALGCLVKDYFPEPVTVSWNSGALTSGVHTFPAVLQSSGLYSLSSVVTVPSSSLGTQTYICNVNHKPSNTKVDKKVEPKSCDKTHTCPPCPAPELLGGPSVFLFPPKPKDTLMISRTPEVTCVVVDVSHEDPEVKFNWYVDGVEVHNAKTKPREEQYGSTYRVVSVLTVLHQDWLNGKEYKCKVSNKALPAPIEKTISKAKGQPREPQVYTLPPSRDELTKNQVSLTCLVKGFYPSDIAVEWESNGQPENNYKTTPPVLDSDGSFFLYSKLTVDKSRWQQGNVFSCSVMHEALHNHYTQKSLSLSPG
light: DIQMTQSPSSLSASVGDRVTITCRASENIYSNLAWYQQKPGKSPKLLVYGYKNLADGVPSRFSGSGSGTDYTLTISSLQPEDFATYYCQHFKTTPRTFGGGTKVEIKRTVAAPSVFIFPPSDEQLKSGTASVVCLLNNFYPREAKVQWKVDNALQSGNSQESVTEQDSKDSTYSLSSTLTLSKADYEKHKVYACEVTHQGLSSPVTKSFNRGEC
notes: Human IgG1 N297G; also called 11C5-YKD
[10]
  HEK-Blue, IL-1β, % inhibition at 100 nM (IgG): 100%
  HEK-Blue, IL-1β, IC50 (IgG): 0.513 nM
  HEK-Blue, IL-33, % inhibition at 100 nM (IgG): 100%
  HEK-Blue, IL-33, IC50 (IgG): 2.08 nM
  HEK-Blue, IL-36α, % inhibition at 100 nM (IgG): 100%
  HEK-Blue, IL-36α, IC50 (IgG): 0.622 nM
[11]
  Kd: 0.0185 nM
  koff: 3.51e-05 s⁻¹
  kon: 1.9e+06 M⁻¹ s⁻¹
[12]
  Kd: 0.0339 nM
  koff: 6.8e-05 s⁻¹
  kon: 2e+06 M⁻¹ s⁻¹
[13]
  Kd: 0.188 nM
  koff: 0.00056 s⁻¹
  kon: 2.98e+06 M⁻¹ s⁻¹
[14]
  Kd: 0.164 nM
  koff: 0.000324 s⁻¹
  kon: 1.98e+06 M⁻¹ s⁻¹
[15]
  Kd: 558 nM
[16]
  Kd: 45.6 nM
[17]
  KD (6)/KD (7.4): 10 ratio
  KD (7.4) ratio to YIS: 0.86 ratio
  koff (6) ratio to YIS: 3.8 ratio
[18]
  KD (6)/KD (7.4): 4.8 ratio
  KD (7.4) ratio to YIS: 2.4 ratio
  koff (6) ratio to YIS: 4.7 ratio
[19]
  Kd: 0.0304 nM
  koff: 6.15e-05 s⁻¹
  kon: 2.03e+06 M⁻¹ s⁻¹
[20]
  Kd: 0.0223 nM
  koff: 5.39e-05 s⁻¹
  kon: 2.41e+06 M⁻¹ s⁻¹
[21]
  HEK-Blue, IL-1β, IC50: 0.51 nM
  HEK-Blue, IL-33, % inhibition at 100 nM: 95%
  HEK-Blue, IL-33, IC50: 3.15 nM
  HEK-Blue, IL-36β, IC50: 0.9 nM
  HEKn, IL-36β stimulated IL-8, IC50: 1.39 nM
  NK cells, IL-33+IL-12 stimulated IFN-γ, IC50: 2.93 nM
  PHLF, IL-1α stimulated IL-8, IC50: 9.1 nM
  PHLF, IL-36β stimulated IL-8, IC50: 0.39 nM
  monocytes, IL-1β stimulated IL-6, IC50: 0.063 nM

B3: 8H1 (purified mAb from hybridoma 8H1) (antibody, V domains shown)
VH: QVQLQQSGPELVKSGASVRISCKASGYAFSGSWMNWVKQRPGKGLEWIGRIYPGDGNTNYNGKFKDKATLTADKSSSTAFMQLSSLTSEDSAVYFCARDYYLFYFDYWGQGTTLTVSS
VL: NIVMTQTPKFLPVAAEDRVIITCKASQDVSNEVAWYQQKPGQSPKLLMYYASNRYTGVPDRFTGSGSGTDFTFTISSVQVEDLAVYFCQQHYSSPLTFGAGTKLELK
notes: Mouse hybridoma mAb
[1]
  EC50: 0.186 nM
[2]
  binding result: no binding (tested: 20 nM (highest tested))
[3]
  EC50: 0.262 nM
[4]
  EC50: 0.257 nM
[5]
  HEK-Blue SEAP, IL-1β, % inhibition (supernatant): 45%
  HEK-Blue SEAP, IL-33, % inhibition (supernatant): 26%
[6]
  A450: 1.09 A450
[7]
  A450: 0.602 A450
[8]
  HEK-Blue, IL-1β, % inhibition at 100 nM: 64%
  HEK-Blue, IL-33, % inhibition at 100 nM: 27%
[9]
  A450: 0.987 A450
